Substitutions are numbered along the chain they refer to. Where two headings read alike, the source gives them in different places.
Key:
[1] = target: T1, human CEACAM5 expressed on MKN-45 wt cells (human, UniProt P06731 35-702); assay: flow cytometry on MKN-45 wt cells (express CEACAM5 and CD47)
T1 construct: MKN-45 cells also express CD47 and CEACAM6; also called CEACAM5 on MKN45
T1 sequence: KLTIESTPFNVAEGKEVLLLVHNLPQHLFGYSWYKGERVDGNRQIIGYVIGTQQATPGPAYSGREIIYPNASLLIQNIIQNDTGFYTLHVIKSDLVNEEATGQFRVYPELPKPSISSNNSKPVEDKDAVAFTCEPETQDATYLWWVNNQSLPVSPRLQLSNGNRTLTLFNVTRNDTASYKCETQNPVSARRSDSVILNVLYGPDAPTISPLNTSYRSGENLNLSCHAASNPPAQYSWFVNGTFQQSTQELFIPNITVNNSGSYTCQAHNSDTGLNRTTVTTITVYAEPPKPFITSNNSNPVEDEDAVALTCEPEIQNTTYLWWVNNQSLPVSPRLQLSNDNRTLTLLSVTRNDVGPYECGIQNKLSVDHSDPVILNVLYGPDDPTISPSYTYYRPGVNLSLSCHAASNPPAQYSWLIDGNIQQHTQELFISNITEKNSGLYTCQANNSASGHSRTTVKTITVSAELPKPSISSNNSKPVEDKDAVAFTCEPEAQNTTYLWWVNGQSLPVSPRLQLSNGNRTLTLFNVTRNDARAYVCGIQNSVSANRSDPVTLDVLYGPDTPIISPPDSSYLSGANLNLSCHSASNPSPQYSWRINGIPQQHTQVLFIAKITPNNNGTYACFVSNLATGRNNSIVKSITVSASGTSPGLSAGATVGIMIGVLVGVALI

[2] = target: T2, human CD47 expressed at the surface of MKN45 cells (human, UniProt Q08722 19-323); assay: inhibition of SIRPα mouseFc binding to CD47 on MKN45 cells; imaging (CX5)
T2 construct: whole, on cells; also called IAP

[3] = target: T1, human CEACAM5 expressed on MKN-45 wt …; assay: cell-based or functional assay
[4] = target: T3, biotinylated recombinant human CEACAM5 (human, UniProt P06731 35-685, biotin on the C-terminal Avitag); assay: reference mAb in the competition ELISA on biotinylated human CEACAM5
T3 construct: also called CD66e; not shown: C-terminal Avitag plus hexa-histidine tag, human Fc or mouse Fc
T3 sequence: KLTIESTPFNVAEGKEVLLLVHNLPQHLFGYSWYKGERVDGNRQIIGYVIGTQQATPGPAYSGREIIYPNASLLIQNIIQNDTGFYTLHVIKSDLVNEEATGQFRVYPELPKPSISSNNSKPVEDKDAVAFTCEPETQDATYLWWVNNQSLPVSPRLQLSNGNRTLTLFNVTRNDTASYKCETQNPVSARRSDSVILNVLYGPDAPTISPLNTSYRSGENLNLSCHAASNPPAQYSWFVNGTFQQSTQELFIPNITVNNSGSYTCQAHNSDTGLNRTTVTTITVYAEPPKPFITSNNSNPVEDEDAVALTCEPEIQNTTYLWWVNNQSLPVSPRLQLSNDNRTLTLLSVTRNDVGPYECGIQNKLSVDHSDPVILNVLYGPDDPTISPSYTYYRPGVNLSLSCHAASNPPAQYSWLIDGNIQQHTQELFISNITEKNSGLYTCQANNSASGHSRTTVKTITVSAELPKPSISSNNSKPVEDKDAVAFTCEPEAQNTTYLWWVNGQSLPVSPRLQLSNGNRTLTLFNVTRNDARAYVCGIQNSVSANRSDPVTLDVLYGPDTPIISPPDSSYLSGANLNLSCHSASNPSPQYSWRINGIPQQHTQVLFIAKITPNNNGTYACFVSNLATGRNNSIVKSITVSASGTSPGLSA

[5] = target: T3, biotinylated recombinant human CEACAM5; assay: ELISA; biotinylated recombinant protein on streptavidin plate; bivalent mAb titrated
[6] = target: T4, recombinant cynomolgus monkey CEACAM5 (cynomolgus monkey (macaca fascicularis)); assay: as above
T4 construct: also called cyno CEACAM5; cynomolgus CEACAM5

[7] = target: T3, biotinylated recombinant human CEACAM5; assay: as above; remark: listed apart in the source
[8] = target: T1, human CEACAM5 expressed on MKN-45 wt …; assay: cell-based or functional assay; remark: listed apart in the source

T2 sequence (Q08722 19-323): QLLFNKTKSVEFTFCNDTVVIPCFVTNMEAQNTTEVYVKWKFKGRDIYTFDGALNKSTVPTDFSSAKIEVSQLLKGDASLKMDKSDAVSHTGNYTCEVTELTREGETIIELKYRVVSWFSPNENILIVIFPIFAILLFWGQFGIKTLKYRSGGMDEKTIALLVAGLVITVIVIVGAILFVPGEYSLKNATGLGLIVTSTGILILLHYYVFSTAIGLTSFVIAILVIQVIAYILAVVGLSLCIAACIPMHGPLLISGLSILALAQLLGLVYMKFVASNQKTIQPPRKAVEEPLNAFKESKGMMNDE

B1: K2AC54 (bispecific antibody, human IgG1, kappa, lambda)
heavy: not shown
light 1: QSVLTQPPSVSGAPGQRVTISCTGSSSNIHDVGYVHWYQQLPGTAPKLLIYGASGRPSGVPDRFSGSKSGTSASLAITGLQAEDEADYYCQSYDTRQVVPTPVFGGGTKLTVLGQPKAAPSVTLFPPSSEELQANKATLVCLISDFYPGAVTVAWKADSSPVKAGVETTTPSKQSNNKYAASSYLSLTPEQWKSHRSYSCQVTHEGSTVEKTVAPTECS
light 2: not shown
notes: 6 is full length
Question: How did the EC50 [1] turn out when B1 was run?
Answer: 19 nM

Question: And the “Emax (MFI)” value [1]?
Answer: 2.75e+06 MFI

Question: And the IC50 [2]?
Answer: 0.16 nM

Question: And the “EC50 (µg/mL) of phagocytosis” value [3]?
Answer: 0.3 µg/mL

B2: K2AC57 (bispecific antibody, human IgG1, kappa, lambda)
heavy: not shown
light 1: B1 light 1 with H30I, D31N, V32N, G33S, G52A, A53P, G55N, Q97F
light 2: not shown
notes: 6 is full length
Question: Which results are given for B2?
Answer: EC50 [1]: 91 nM; Emax (MFI) [1]: 2.26e+06 MFI; IC50 [2]: 1.1 nM; EC50 (µg/mL) of phagocytosis [3]: 1.6 µg/mL

B3: K2AC53 (bispecific antibody, human IgG1, kappa, lambda)
heavy: not shown
light 1: B1 light 1 with T95G, Q97A, V99F
light 2: not shown
notes: 6 is full length
Question: How did the EC50 [1] turn out when B3 was run?
Answer: 38 nM

Question: What about the “Emax (MFI)” value [1] of the same binder?
Answer: 2.63e+06 MFI

Question: What about the IC50 [2] of the same binder?
Answer: 0.3 nM

Question: And the “EC50 (µg/mL) of phagocytosis” value [3]?
Answer: 0.8 µg/mL

B4: K2AC52 (bispecific antibody, human IgG1, kappa, lambda)
heavy: not shown
light 1: B1 light 1 with R96K, Q97R, V98E, V99F
light 2: not shown
notes: 6 is full length
Question: Which EC50 [1] does the source give for B4 here?
Answer: 219 nM

Question: What about the “Emax (MFI)” value [1] of the same binder?
Answer: 3.3e+06 MFI

Question: And the IC50 [2]?
Answer: 1.1 nM

Question: What about the “EC50 (µg/mL) of phagocytosis” value [3] of the same binder?
Answer: 1 µg/mL

B5: K2AC55 (bispecific antibody, human IgG1, kappa, lambda)
heavy: not shown
light 1: B1 light 1 with R96S, Q97A, V99F
light 2: not shown
notes: 6 is full length
Question: How did the EC50 [1] turn out when B5 was run?
Answer: 221 nM

Question: What about the “Emax (MFI)” value [1] of the same binder?
Answer: 3.9e+06 MFI

Question: What about the IC50 [2] of the same binder?
Answer: 1.6 nM

Question: And the “EC50 (µg/mL) of phagocytosis” value [3]?
Answer: 0.9 µg/mL

B6: K2AC56 (bispecific antibody, human IgG1, kappa, lambda)
heavy: not shown
light 1: B1 light 1 with H30I, D31N, V32N, G33S, G52A, A53P, G55N, R96T, Q97G, V99M
light 2: not shown
notes: 6 is full length
Question: B6 was tested. Which EC50 [1] did it give?
Answer: 47 nM

Question: What about the “Emax (MFI)” value [1] of the same binder?
Answer: 1.59e+06 MFI

Question: And the IC50 [2]?
Answer: 2.8 nM

Question: And the “EC50 (µg/mL) of phagocytosis” value [3]?
Answer: 5 µg/mL

B7: SM3E (antibody, V domains shown)
VH: QVKLEQSGAEVVKPGASVKLSCKASGFNIKDSYMHWLRQGPGQRLEWIGWIDPENGDTEYAPKFQGKATFTTDTSANTAYLGLSSLRPEDTAVYYCNEGTPTGPYYFDYWGQGTLVTVSS
VL: ENVLTQSPSSMSVSVGDRVNIACSASSSVPYMHWLQQKPGKSPKLLIYLTSNLASGVPSRFSGSGSGTDYSLTISSVQPEDAATYYCQQRSSYPLTFGGGTKLEIK
notes: also called anti-CEACAM5 antibody SM3E
Question: Does B7 bind [4]?
Answer: binds

B8: AC49 (antibody, human IgG1, lambda, V domains shown)
VH: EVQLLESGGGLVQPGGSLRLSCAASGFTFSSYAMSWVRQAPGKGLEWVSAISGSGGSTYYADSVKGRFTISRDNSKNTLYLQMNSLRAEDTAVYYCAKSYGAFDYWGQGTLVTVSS
VL: QSVLTQPPSVSAAPGQKVTISCSGSSSNIFDSGVSWYQQLPGTAPKLLIYNHNERPSGIPDRFSGSKSGTSATLGITGLQTGDEADYYCGTWDFPPSRFVFGGGTKLTVLG
notes: Bivalent IgG1 mAb; 6 carries the IgG1 Fc; also called CEACAM5/CEACAM6 mAb AC49
Question: For B8, which EC50 [5] is on record?
Answer: 0.1 nM

Question: And the EC50 [6]?
Answer: 0.03 nM

Question: What about the EC50 [7] of the same binder?
Answer: 0.1 nM

B9: K2AC50 (bispecific antibody, human IgG1, kappa, lambda)
heavy: not shown
light 1: QSALTQPASVSGSPGQSITISCTGTSSDVYEFRLVSWYQQHPGKAPKLMIYFDSLRPSGVSNRFSGSKSGNTASLTISGLQAEDEADYYCSSWDKFGYAFNSVFGGGTKLTVLGQPKAAPSVTLFPPSSEELQANKATLVCLISDFYPGAVTVAWKADSSPVKAGVETTTPSKQSNNKYAASSYLSLTPEQWKSHRSYSCQVTHEGSTVEKTVAPTECS
light 2: not shown
Question: B9 was tested. Which “EC50 (µg/mL) of phagocytosis” value [8] did it give?
Answer: 0.07 µg/mL

B10: K2AC49 (bispecific antibody, human IgG1, kappa, lambda)
heavy: not shown
light 1: QSVLTQPPSVSAAPGQKVTISCSGSSSNIFDSGVSWYQQLPGTAPKLLIYNHNERPSGIPDRFSGSKSGTSATLGITGLQTGDEADYYCGTWDFPPSRFVFGGGTKLTVLGQPKAAPSVTLFPPSSEELQANKATLVCLISDFYPGAVTVAWKADSSPVKAGVETTTPSKQSNNKYAASSYLSLTPEQWKSHRSYSCQVTHEGSTVEKTVAPTECS
light 2: not shown
Question: How did the “EC50 (µg/mL) of phagocytosis” value [8] turn out when B10 was run?
Answer: 0.3 µg/mL

B11: AC50 (antibody, human IgG1, lambda, V domains shown)
VH: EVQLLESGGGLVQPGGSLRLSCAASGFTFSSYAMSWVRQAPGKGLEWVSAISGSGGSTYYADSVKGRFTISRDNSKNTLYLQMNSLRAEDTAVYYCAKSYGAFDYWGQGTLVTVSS
VL: QSALTQPASVSGSPGQSITISCTGTSSDVYEFRLVSWYQQHPGKAPKLMIYFDSLRPSGVSNRFSGSKSGNTASLTISGLQAEDEADYYCSSWDKFGYAFNSVFGGGTKLTVLG
notes: Bivalent IgG1 mAb; 6 carries the IgG1 Fc; also called CEACAM5/CEACAM6 mAb AC50
Question: Which EC50 [5] does the source give for B11 here?
Answer: 0.09 nM

Question: And the EC50 [6]?
Answer: 0.05 nM

Question: And the EC50 [7]?
Answer: 0.09 nM

B12: SAR (antibody, V domains shown)
VH: EVQLVESGGGLVQPGGSLRLSCAASGFVFSSYDMSWVRQAPGKGLEWVSYISSGGGITYYADSVKGRFTISRDNSKNTLYLQMNSLRAEDTAVYYCAAHYFGSSGPFAYWGQGTLVTVSS
VL: DIQMTQSPSSLSASVGDRVTITCRASENIFSYLAWYQQKPGKAPKLLIYNTRTLQSGVPSRFSGSGSGTDFTLTISSLQPEDFATYYCQHHYGTPFTFGQGTKLEIK
notes: also called mAb derived from Mab2_VLg5VHg2
Question: Does B12 bind [4]?
Answer: binds
